Experiments:
Assay in all cases: BLI
Settings in all cases: both partners purified
SARS-CoV-2 Alpha RBD [1] = molecular target: T1, SARS-CoV-2 Alpha RBD (SARS-CoV-2 Alpha (B.1.1.7), N501Y (stands in the printed letters))
SARS-CoV-2 Alpha RBD [2] = molecular target: T1, SARS-CoV-2 Alpha RBD; remark: listed apart in the source
SARS-CoV-2 Alpha RBD [3] = molecular target: T1, SARS-CoV-2 Alpha RBD; remark: listed apart in the source
[4] = molecular target: S-R SARS-CoV-2 spike (unstabilized native spike with furin site changed to a single R) (SARS-CoV-2, wild type (Wuhan-Hu-1 spike), UniProt P0DTC2, stabilised)
[5] = molecular target: S-R/x3 SARS-CoV-2 spike (x3 disulfide-stabilized RBD 'down' spike) (SARS-CoV-2, wild type (Wuhan-Hu-1 spike), UniProt P0DTC2, stabilised)
[6] = molecular target: S-R/PP SARS-CoV-2 spike (2P-stabilized spike with furin site changed to a single R) (SARS-CoV-2, wild type (Wuhan-Hu-1 spike), UniProt P0DTC2, stabilised)
[7] = molecular target: S-R/x2 SARS-CoV-2 spike (x2 disulfide-stabilized RBD 'down' spike) (SARS-CoV-2, wild type (Wuhan-Hu-1 spike), UniProt P0DTC2, stabilised)
[8] = molecular target: SARS-CoV-2 Alpha (B.1.1.7) variant RBD (SARS-CoV-2 Alpha (B.1.1.7), N501Y)
[9] = molecular target: SARS-CoV-2 RBD (residues 319-541), wild type (SARS-CoV-2, wild type, UniProt P0DTC2)
[10] = molecular target: recombinant SARS-CoV-2 RBD-His protein (Sino Biological, 40592-V08B) (SARS-CoV-2, UniProt P0DTC2)

Binder | binding result [9] | binding result [10] | other results
FC08 (antibody, V domains shown) VH: QLLQQSGAEVKKPGSSVKVSCKASGGTFSSYAISWVRQAPGQGLEWMGGIIPIIGIANYAQKFQGRVTITADKSTSTAYMELSSLRSEDTAVYYCARERGYSGYGAAYYFDYWGQGTLVTVSS VL: SVLTQPPSVSGAPGQRVTISCTGSSSNIGAGYDVHWYQQLPGTAPKLLIYGNSNRPSGVPDRFSGSKSGTSASLAITGLQAEDEADYYCQSYDSSLSGSVFGGGTKLTVL | – | – | Kd (SARS-CoV-2 Alpha RBD [1]): 0.15 nM; koff (SARS-CoV-2 Alpha RBD [1]): 0.00025 s⁻¹; kon (SARS-CoV-2 Alpha RBD [1]): 1.69e+06 M⁻¹ s⁻¹
R1-32 (antibody, V domains shown, human IgG1) VH: EVQLVESGAEVKKPGSSVKVSCKASGGTFSSYAISWVRQAPGQGLEWMGGIIPILGIANYAQKFQGRVTITADKSTSTAYMELSSLRSEDTAVYYCARENGYSGYGAAANFDLWGRGTLVTVSS VL: QSVLTQPPSVSGAPGQRVTISCTGSSSNIGAGYDVHWYQQLPGTAPKLLIYGNSNRPSGVPDRFSGSKSGTSASLAITGLQAEDEADYYCQSYDSSLSGSVFGGGTKLTVL | – | – | Kd (SARS-CoV-2 Alpha RBD [2]): 4.74 nM; koff (SARS-CoV-2 Alpha RBD [2]): 0.00195 s⁻¹; kon (SARS-CoV-2 Alpha RBD [2]): 411000 M⁻¹ s⁻¹; koff (SARS-CoV-2 Alpha RBD [3]): 0.000354 s⁻¹; kon (SARS-CoV-2 Alpha RBD [3]): 499000 M⁻¹ s⁻¹
R1-32 (human IgG1 monoclonal antibody) (antibody, V domains shown) VH: EVQLVESGAEVKKPGSSVKVSCKASGGTFSSYAISWVRQAPGQGLEWMGGIIPILGIANYAQKFQGRVTITADKSTSTAYMELSSLRSEDTAVYYCARENGYSGYGAAANFDLWGRGTLVTVSS VL: QSVLTQPPSVSGAPGQRVTISCTGSSSNIGAGYDVHWYQQLPGTAPKLLIYGNSNRPSGVPDRFSGSKSGTSASLAITGLQAEDEADYYCQSYDSSLSGSVFGGGTKLTVL | – | – | binding result [4]: binds; binding result [5]: binds; binding result [6]: binds; binding result [7]: binds; Kd [8]: 0.71 nM
FC08 (R1-32 related VH1-69 antibody, ref. 10) (antibody, V domains shown) VH: QLLQQSGAEVKKPGSSVKVSCKASGGTFSSYAISWVRQAPGQGLEWMGGIIPIIGIANYAQKFQGRVTITADKSTSTAYMELSSLRSEDTAVYYCARERGYSGYGAAYYFDYWGQGTLVTVSS VL: SVLTQPPSVSGAPGQRVTISCTGSSSNIGAGYDVHWYQQLPGTAPKLLIYGNSNRPSGVPDRFSGSKSGTSASLAITGLQAEDEADYYCQSYDSSLSGSVFGGGTKLTVL | binds | – | binding result [4]: binds; binding result [5]: binds
C963 (R1-32-like mAb, ref. 27) (antibody, V domains shown) VH: QVQLVQSGAEVKKPGSSVRVSCKASGGTFSSFTITWVRQAPGQGLEWMGRIIPNLNIPNYAQRFQGRITITAEKSTSTAYLELSSLRSEDTAVYYCARGVGYSGSGSNWYFDLWGRGTLVTVSS VL: QSVLTQPPSVSGAPGQRVTISCTGSSSNIGAGYDVHWYQQLPGTAPKLLISGHINRPSGVPDRFSGSTSGTSASLAITGLQAEDEADYYCQSYDSSLSDSVFGGGTKLTV | binds | binds | –
C978 (R1-32-like mAb, ref. 27) (antibody, V domains shown) VH: QVQLVQSGAEVKKPGSSVKVSCKASGATFSNYIISWVRQAPGQGLEWMGRTIPLLDIANYAQKFQGRVTITADKSTRIVYMHLGSLTSEDTAVYYCATGKGYSSSSAAYYFDHWGQGTLVTVSS VL: QSVLTQPPSVSGAPGQRVTISCTGTNSNIGAGYDIHWYQQLPGTAPKLLIYGSNNRPSGVPDRFSGSKSGTSASLAITGLQAEDEADYYCQSYDSSLSGSEVFGGGTKLTVL | binds | binds | –
C941 (R1-32-like mAb, ref. 27) (antibody, V domains shown) VH: QVQLVQSGAEVKKPGSSVKVSCKASGGTSRSYPISWVRQAPGQGLEWMGRIIPIVGTANYAQRFQGRVTITADESTGTAYMELSSLRSEDTAVYYCARNRGYSDYGSVYYFDYWGQGTLVTVSS VL: QSVLTQPPSVSGAPGQRVTISCTGSSSNIGAGYDVHWYQQLPGAAPKLLIYRNINRPSGVPDRFSGSKSGTSASLAITGLQADDEADYYCQSYDSSLSGSVFGGGTKLTV | binds | binds | –
C091 (R1-32-like mAb, ref. 28) (antibody, V domains shown) VH: QVQLVQSGAEVKKPGSSVKVSCKASGGTFSSYTISWVRQAPGQGLEWMGRIIPILGIANYAQKFQGRVTITADKSTSTAYMELSSLRSEDTAVYYCARDSGYSGYGSTYYMDVWGKGTTVTVSS VL: QSVLTQPPSVSGAPGQRVTISCTGSSSNIGAGYDVHWYQQLPGTAPKLLIYGNSNRPSGVPDRFSGSKSGTSASLAITGLQAEDEADYYCQSYDSSLSGSVFGTVTKVTVL | binds | binds | –
C092 (R1-32-like mAb, ref. 28) (antibody, V domains shown) VH: QVQLVQSGAEVKKPGSSVKVSCKASGGSFTNHFISWVRQAPGQGLEWMGRIIPILGTANYAQNFQGRVMMTADKSTSTAYMELSSLRSEDTAVYYCARDSGYSGYGSTYYMDVWGKGTTVTVSS VL: QSVLTQPPSVSGAPGQRVTISCTGSNSNIGAGYDVHWYQQLPGAAPKLLIYGNNNRPSGVPDRFSGSKSDTSASLAITGLQVEDEADYYCQSYDSSLSDSVFGSGTKVTVL | binds | binds | –
C807 (R1-32-like mAb, ref. 29) (antibody, V domains shown) VH: QVQLVQSGAEAKKPGSSVKVSCKASGGTFKSYIINWVRQAPGQGLEWMGEIIPIFGTANYAQKFQGRVTSTADESTSTAYMELSSLKSEDTAVYYCARGRGYSGYGASYYFDYWGQGTLVTVSS VL: QSVLTQPPSVSGAPGQRVTISCTGSNSNIGAGYDVHWYQQLPGTAPKLLIYANSNRPSGVPDRFSGSKSGTSASLAITGLQAEDEADYYCQSYDSGLSGSVFGGGTKLTVL | binds | binds | –
C832 (R1-32-like mAb, ref. 29) (antibody, V domains shown) VH: QVQLVQSGAEVKKPGSSVKVSCKASGGTFSSYSISWVRQAPGQGLEWMGRIIPILGIASYAQKFQGRVTITADKSTSTVYMELTGLRSDDTAVYYCARDRGYSDYGSHYYMDVWGKGTTVTVSS VL: QSVLTQPPSVSGAPGQRVTISCTGSSSNIGAGYDVHWYQQLPGTAPKLLIYINSNRPSGVPDRFSGSKSGTSASLAITGLQAEDEADYYCQSYDSSLSDSVFGGGTKLTVL | binds | binds | –

Source: publication PMC9519457 (Nature Microbiology, 2022)
